{"source": "paper PMC12660843", "about": "“Using phage display for rational engineering of a higher-affinity humanized 3’ phosphohistidine-specific antibody” (Communications Chemistry, 2025)", "binders": {"B1": {"name": "hSC44 Fab (Fab, V domains shown)", "VH": "EVQLVESGGGLVQPGGSLRLSCTASGFSIDSYGFSWVRQAPGKGLEHIGYLTAGGRAFYASWAKSRSTITRNTNENTVTLKMNSLRAEDTAVYYCAKLGSGNPVAIWGQGTLVTVSS", "VL": "DIQMTQSPSSLSASVGDRVTITCRASQSVWRNKNVAWYQQKPGKAPKRLIYAIASLYSGVPSRFSGSGSGTDFTLTISSLQPEDFATYYCVGHYGSENDAYYAFGQGTKVEIK"}, "B2": {"name": "hSC44.20.N32Y^L IgG (antibody, V domains shown)", "VH": "B1 VH with S100T, N102S, P103R, V104F", "VL": "B1 VL with N34Y"}, "B3": {"name": "hSC44.20.N32F^L IgG (antibody, V domains shown)", "VH": "B1 VH with S100T, N102S, P103R, V104F", "VL": "B1 VL with N34F", "notes": "as the heavy chain of m4 (heavy chain of m2 with the stated CDR-H3 changes, Kabat numbering); as the light chain of m1 with N32F in CDR-L1 (Kabat numbering); source: Expi293, transfected, purified (CaptoL, SEC); copies: 2 + 2"}, "B4": {"name": "hSC44 IgG (antibody, V domains shown)", "VH": "B1 VH", "VL": "B1 VL"}, "B5": {"name": "hSC44.20 IgG (antibody, V domains shown)", "VH": "B1 VH with S100T, N102S, P103R, V104F", "VL": "B1 VL with M4L", "notes": "human IgG1, kappa light chain"}}, "key": {"[1]": {"target": "3-pTza peptide (Biotin-AminocaproicAcid-A.G.A.G.3-pTza.A.G.A.G)", "assay": "BLI; Octet RED96e; biotinylated peptides captured on streptavidin biosensors at 20 nM; Fab in solution, 20-200 nM; 1x HBS-T, 1% BSA"}, "[2]": {"target": "3-pTza peptide (Biotin-AminocaproicAcid-A.G.A.G.3-pTza.A.G.A.G)", "assay": "BLI; Octet RED96e; biotinylated peptides captured on streptavidin biosensors at 20 nM; Fab in solution, 20-200 nM; 1x HBS-T, 1% BSA", "remark": "listed apart in the source"}, "[3]": {"target": "T1, 3-pHis peptide (Biotin-AminocaproicAcid-A.G.A.G.H.A.G.A.G phosphorylated by phosphoramidate)", "T1 construct": "His-peptide, phosphorylated on His5; the phosphoramidate reaction gives a mixture of non-phosphorylated, 1-pHis, 3-pHis and di-pHis peptide; also called Biotinylated ACLYana-3-pHis; ACLYana-pHis; source: synthetic peptide, phosphorylated with potassium phosphoramidate; not shown: biotin, N-terminal, kept", "T1 peptide": "{Biotin-Ahx}-AGAG[3‑pHis]AGAG", "assay": "BLI; Octet RED96e; biotinylated peptides captured on streptavidin biosensors at 20 nM; Fab in solution, 20-200 nM; 1x HBS-T, 1% BSA"}, "[4]": {"target": "3-pTza peptide (Biotin-AminocaproicAcid-A.G.A.G.3-pTza.A.G.A.G)", "assay": "BLI; Octet HTX; biotinylated peptides captured on streptavidin biosensors at 20 nM; IgG in solution, 20-200 nM; 1x HBS-T, 1% BSA"}, "[5]": {"target": "T1, 3-pHis peptide …", "assay": "BLI; Octet HTX; biotinylated peptides captured on streptavidin biosensors at 20 nM; IgG in solution, 20-200 nM; 1x HBS-T, 1% BSA"}, "[6]": {"target": "T2, 3-pHis form of ACLY (120 kDa) (Homo sapiens (HEK293T, endogenous), UniProt P53396, 3-phosphohistidine (site not stated))", "T2 construct": "ACLY (ATP-citrate lyase), 120 kDa band on the immunoblot; source: endogenous, HEK293T lysate", "T2 sequence (P53396 whole entry)": "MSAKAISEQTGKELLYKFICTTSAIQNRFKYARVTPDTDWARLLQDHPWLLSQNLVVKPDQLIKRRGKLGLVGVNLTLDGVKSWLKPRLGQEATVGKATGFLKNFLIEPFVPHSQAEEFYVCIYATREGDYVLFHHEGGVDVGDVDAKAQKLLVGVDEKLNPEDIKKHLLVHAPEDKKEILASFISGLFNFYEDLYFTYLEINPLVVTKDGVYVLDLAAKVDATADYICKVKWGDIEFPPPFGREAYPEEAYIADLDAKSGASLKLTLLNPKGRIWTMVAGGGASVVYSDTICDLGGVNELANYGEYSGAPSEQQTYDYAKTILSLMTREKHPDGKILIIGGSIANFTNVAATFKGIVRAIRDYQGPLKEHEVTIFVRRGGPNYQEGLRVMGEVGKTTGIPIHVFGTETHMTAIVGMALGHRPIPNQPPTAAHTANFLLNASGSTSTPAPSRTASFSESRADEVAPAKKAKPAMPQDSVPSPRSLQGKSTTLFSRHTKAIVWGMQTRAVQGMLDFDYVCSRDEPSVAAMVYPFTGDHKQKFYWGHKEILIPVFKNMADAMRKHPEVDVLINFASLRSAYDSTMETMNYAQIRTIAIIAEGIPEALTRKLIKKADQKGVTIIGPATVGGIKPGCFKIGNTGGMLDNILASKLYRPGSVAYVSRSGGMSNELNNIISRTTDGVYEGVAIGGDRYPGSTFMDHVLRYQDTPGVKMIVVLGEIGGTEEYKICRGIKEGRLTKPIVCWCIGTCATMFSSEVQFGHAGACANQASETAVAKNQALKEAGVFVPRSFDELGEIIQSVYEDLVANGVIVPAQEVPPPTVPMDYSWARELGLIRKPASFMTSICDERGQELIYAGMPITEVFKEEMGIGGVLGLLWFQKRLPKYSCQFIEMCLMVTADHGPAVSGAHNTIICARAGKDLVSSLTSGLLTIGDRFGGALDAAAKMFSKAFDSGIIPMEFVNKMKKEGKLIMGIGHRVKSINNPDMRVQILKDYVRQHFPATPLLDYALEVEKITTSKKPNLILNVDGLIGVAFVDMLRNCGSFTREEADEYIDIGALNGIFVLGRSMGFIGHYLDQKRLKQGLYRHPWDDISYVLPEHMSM", "assay": "immunoblot; HEK293T whole cell lysate, 30 µg, alkaline 12% SDS-PAGE and alkaline blotting at 4 °C; 0.5 µg/mL IgG as primary antibody, 1 h at room temperature; HRP secondary antibody", "details": "one partner purified"}, "[7]": {"target": "T3, 3-pHis form of the a-subunit of SCS (30 kDa) (Homo sapiens (HEK293T, endogenous), UniProt P53597, 3-phosphohistidine (site not stated))", "T3 construct": "alpha subunit of SCS (succinyl-CoA synthetase), 30 kDa band on the immunoblot; source: endogenous, HEK293T lysate", "T3 sequence (P53597 41-346)": "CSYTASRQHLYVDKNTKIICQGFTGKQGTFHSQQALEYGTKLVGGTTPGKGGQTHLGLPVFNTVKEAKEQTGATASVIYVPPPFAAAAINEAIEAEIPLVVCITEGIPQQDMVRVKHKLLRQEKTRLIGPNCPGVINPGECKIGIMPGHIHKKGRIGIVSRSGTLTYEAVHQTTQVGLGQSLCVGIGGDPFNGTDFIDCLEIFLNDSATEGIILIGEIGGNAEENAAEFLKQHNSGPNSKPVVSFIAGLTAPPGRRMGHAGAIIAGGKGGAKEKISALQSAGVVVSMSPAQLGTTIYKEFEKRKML", "assay": "immunoblot; HEK293T whole cell lysate, 30 µg, alkaline 12% SDS-PAGE and alkaline blotting at 4 °C; 0.5 µg/mL IgG as primary antibody, 1 h at room temperature; HRP secondary antibody", "details": "one partner purified"}, "[8]": {"target": "T4, 3-pTza peptide (Biotin-AminocaproicAcid-A.G.A.G.3-pTza.A.G.A.G) (synthetic construct)", "T4 chain": "{Biotin-Ahx}-AGAG[3‑pTza]AGAG", "assay": "BLI"}, "[9]": {"target": "T5, 3-pTza peptide (Biotin-AminocaproicAcid-A.G.A.G.3-pTza.A.G.A.G)", "T5 chain": "{Biotin-Ahx}-AGAG[3‑pTza]AGAG", "assay": "BLI; biotinylated peptide captured on streptavidin biosensors at 20 nM; IgG in solution at 20-200 nM; Octet HTX; 1x HBS-T, 1% BSA", "details": "both partners purified"}, "[10]": {"target": "T1, 3-pHis peptide …", "assay": "BLI; biotinylated peptide captured on streptavidin biosensors at 20 nM; IgG in solution at 20-200 nM; Octet HTX; 1x HBS-T, 1% BSA", "details": "both partners purified"}}, "note": "Numbering of substitutions follows the chain as printed. Numbers in names are those of the source. *1 amine or outer side, *2 acyl side, *3 side chain or, on linkers, in order; H or OH if unused. Where no end group is shown, it is not given here. [ ]: non-standard residue; d: D form. The star is where a group is joined. 3‑pTza = 3-phosphotriazolyl alanine (also given as 3-phosphoryl-triazolylalanine); 3‑pHis = 3-phosphohistidine, O=C([C@H](Cc1cn(P(=O)(O)O)cn1)N[*:1])[*:2]; Biotin = O=C1N[C@H]2[C@H](CS[C@H]2CCCCC(=O)*)N1; Ahx = NCCCCCC(=O)O", "data": [{"binder": "B1", "values": [{"measurement": "Kd", "setting": "[1]", "result": 1.62, "unit": "nM"}, {"measurement": "koff", "setting": "[1]", "result": "8.16e-05", "unit": "s⁻¹"}, {"measurement": "kon", "setting": "[1]", "result": 50600, "unit": "M⁻¹ s⁻¹"}, {"measurement": "Kd", "setting": "[2]", "result": 1.5, "unit": "nM"}, {"measurement": "Kd", "setting": "[3]", "result": 40.5, "unit": "nM"}, {"measurement": "koff", "setting": "[3]", "result": 0.00235, "unit": "s⁻¹"}, {"measurement": "kon", "setting": "[3]", "result": 57900, "unit": "M⁻¹ s⁻¹"}]}, {"binder": "B2", "values": [{"measurement": "Kd", "setting": "[4]", "result": "< 0.001", "unit": "nM"}, {"measurement": "Kd", "setting": "[5]", "result": 9.5, "unit": "nM"}]}, {"binder": "B3", "values": [{"measurement": "Kd", "setting": "[4]", "result": "< 1.54", "unit": "nM"}, {"measurement": "Kd", "setting": "[5]", "result": 1.6, "unit": "nM"}, {"measurement": "binding result", "setting": "[6]", "result": "binds"}, {"measurement": "binding result", "setting": "[7]", "result": "binds"}]}, {"binder": "B4", "values": [{"measurement": "koff", "setting": "[8]", "result": "9.3e-05", "unit": "s⁻¹"}, {"measurement": "Kd", "setting": "[4]", "result": 1.2, "unit": "nM"}]}, {"binder": "B5", "values": [{"measurement": "koff", "setting": "[9]", "result": "< 1e-07", "unit": "s⁻¹"}, {"measurement": "kon", "setting": "[9]", "result": 257000, "unit": "M⁻¹ s⁻¹"}, {"measurement": "Kd", "setting": "[10]", "result": 21, "unit": "nM"}]}]}
